Experimental data: PMC12000442 (Nature Communications, 2025)

Target: T1, NAA10^R4S-3xFLAG (human, UniProt P41227 1-235, R4S)
T1 sequence: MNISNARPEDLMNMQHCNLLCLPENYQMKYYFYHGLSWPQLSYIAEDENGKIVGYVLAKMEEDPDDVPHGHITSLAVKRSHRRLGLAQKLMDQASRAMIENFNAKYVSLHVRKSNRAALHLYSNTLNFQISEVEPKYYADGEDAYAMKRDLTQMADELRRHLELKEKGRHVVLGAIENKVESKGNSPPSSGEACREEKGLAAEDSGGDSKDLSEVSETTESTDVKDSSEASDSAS
Assay: co-IP

B1: NAA15 (natural protein)
chain: MPAVSLPPKENALFKRILRCYEHKQYRNGLKFCKQILSNPKFAEHGETLAMKGLTLNCLGKKEEAYELVRRGLRNDLKSHVCWHVYGLLQRSDKKYDEAIKCYRNALKWDKDNLQILRDLSLLQIQMRDLEGYRETRYQLLQLRPAQRASWIGYAIAYHLLEDYEMAAKILEEFRKTQQTSPDKVDYEYSELLLYQNQVLREAGLYREALEHLCTYEKQICDKLAVEETKGELLLQLCRLEDAADVYRGLQERNPENWAYYKGLEKALKPANMLERLKIYEEAWTKYPRGLVPRRLPLNFLSGEKFKECLDKFLRMNFSKGCPPVFNTLRSLYKDKEKVAIIEELVVGYETSLKSCRLFNPNDDGKEEPPTTLLWVQYYLAQHYDKIGQPSIALEYINTAIESTPTLIELFLVKAKIYKHAGNIKEAARWMDEAQALDTADRFINSKCAKYMLKANLIKEAEEMCSKFTREGTSAVENLNEMQCMWFQTECAQAYKAMNKFGEALKKCHEIERHFIEITDDQFDFHTYCMRKITLRSYVDLLKLEDVLRQHPFYFKAARIAIEIYLKLHDNPLTDENKEHEADTANMSDKELKKLRNKQRRAQKKAQIEEEKKNAEKEKQQRNQKKKKDDDDEEIGGPKEELIPEKLAKVETPLEEAIKFLTPLKNLVKNKIETHLFAFEIYFRKEKFLLMLQSVKRAFAIDSSHPWLHECMIRLFNTAVCESKDLSDTVRTVLKQEMNRLFGATNPKNFNETFLKRNSDSLPHRLSAAKMVYYLDPSSQKRAIELATTLDESLTNRNLQTCMEVLEALYDGSLGDCKEAAEIYRANCHKLFPYALAFMPPGYEEDMKITVNGDSSAEAEELANEI
In the case of B1, the “binding capacity relative to WT” value is reported as 0.5 relative to WT (WT = 1.0).
